In the series the target is T1, OsARF25 B3 domain (OsARF25 123-243-GST) (Oryza sativa) (UniProt Q2QM84).
T1 sequence: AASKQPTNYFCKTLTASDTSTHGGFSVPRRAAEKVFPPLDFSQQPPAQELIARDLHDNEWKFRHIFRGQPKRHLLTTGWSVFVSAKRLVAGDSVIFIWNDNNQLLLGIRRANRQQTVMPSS
As to the kind of experiment: EMSA. Conditions: 20 uL: 50 ng probe, 2 ug protein, 2 uL 10x buffer (100 mM Tris, 500 mM KCl, 10 mM DTT, pH 7.5) plus 1 uL each of 1 M KCl, 50% glycerol, 0.5 M EDTA.

In the case of “TGATGAATTGAAAAGCTTGAATTCACTTCACATGCCGGCCACAATTACGGCGTTATTAGGCGGGACATGGGCATAGGAAAACCGGAAAGGTGTCCAAGGCGTTGCAGAGAATGTAGTGTGTCGGTCATAGGCTGCAAGCGAGTGCACTCCCACTTGCACCCAGGGATATATATTATCGTCATGCATGTGCCTTATGCTCTTGTCAAGCAATATTTTTTGGCAAGGCATGTGCTCTGTATGTATATAAAACTC (double strand) [proSG1 probe]”, the binding entry is reported as “binds”. Then “GAGTTTTATATACATACAGAGCACATGCGGCATCAATGAGCAACAGGGTTTGCATGCGTTGCTGCTGCTTGAGTTCTAGTATTAGTATTTTTATTTCATCTTAATGCTTGAGCCAATAGTTCCTGAGCTGAGACATGTGCAGAAGTATCTCGTCTCGGCCTTGATTGGTGACACTGCTCGTCATGATCCAAGGGGGTGCTGCCTCAAAATATTCACGGATCGAATTCAAGCTTTTCAATTCATCA (double strand) [proOsOFP04 probe]”, with “binds”.

These data come from PMC12196904.
